The results in this text go back to PMC3496724.

The target of test [1] is HIV-1 Tat protein (wild type, biologically active) (HIV-1 (human T lymphotropic virus type IIIB-BH-10, subtype B)) (UniProt P04610). Description: SPR; BIACORE 3000; Tat immobilised by amine coupling on a CM3 chip; Env (5–1,000 nM) flowed in PBS pH 7.4 with 0.2% Tween 20, 300 mM NaCl, 5 mg/mL dextran; blank reference surface subtracted; single-site model. (In SPR one partner is held on a chip, and binding of the other changes the refractive index at the surface.)

For test [2] the target is unchanged. Description: ITC; VP-ITC; Tat (1.25 to 4.4 µM) in the cell, trimeric Env (12.5 to 47.0 µM in protein subunit) in the syringe; PBS pH 7.4. On the technique in general: ITC needs no label: the signal is the heat of the interaction.

Regarding “monomeric ΔV2 Env (clade B, HIV-1 SF162) (natural protein)”, in test [1], the Kd – broadly, the constant that tells how readily two partners part at equilibrium – worked out at 0.091 µM; the T1/2 (complex dissociation half life) was determined as 23 min; the koff – broadly, a measure of how fast the partners let go of each other – turned out to be 0.00049 s⁻¹; the on-rate (kon) (in general, a measure of how fast the partners come together) is 5900 M⁻¹ s⁻¹.

Regarding “trimeric wt Env (clade B, HIV-1 SF162) (natural protein)”, in test [1], the equilibrium dissociation constant (Kd) came out at 0.038 µM, the T1/2 (complex dissociation half life) amounted to 23 min, the koff amounted to 0.00049 s⁻¹ and the kon came out at 14000 M⁻¹ s⁻¹. Further, in test [2], the Kd was found to be 0.111 µM and the stoichiometry N (Tat per gp120 subunit) was determined as 1.

In test [1], “trimeric ΔV2 Env (clade B, HIV-1 SF162) (natural protein)” yielded a dissociation constant Kd of 0.022 µM, a T1/2 (complex dissociation half life) of 230 min, a koff of 5e-05 s⁻¹ and an association rate constant (kon) of 2600 M⁻¹ s⁻¹.
